Starred links: 1 amine or outer side, 2 acyl side, 3 side chain; linkers in the order of their positions; H or OH if unused. Non-standard residues stand in square brackets, D forms with d. Primed or numbered codes have the meaning given here. No end group written: not given here. *: point of attachment. Pra′ = its azide, alkyne or alkene has reacted where a group follows in round brackets; Atz = 3-(1,2,3-triazol-4-yl)alanine, O=C([C@H](Cc1c[nH]nn1)N[*:1])[*:2]; Propanoyl(3-triazol-4-yl) = O=C(CCc1cn([*:1])nn1)[*:2]; dBip = N[C@H](Cc1ccc(-c2ccccc2)cc1)C(=O)O; BhPhe = source's own code, no definition; Oic = O=C(O)[C@@H]1C[C@@H]2CCCC[C@@H]2N1; Phe(4-Cl) = N[C@@H](Cc1ccc(Cl)cc1)C(=O)O; dPhe(4-Cl) = N[C@H](Cc1ccc(Cl)cc1)C(=O)O; Phe(4-I) = N[C@@H](Cc1ccc(I)cc1)C(=O)O; d1Nal = N[C@H](Cc1cccc2ccccc12)C(=O)O; NMeR = CN[C@@H](CCCNC(=N)N)C(=O)O; Tridecanoyl = CCCCCCCCCCCCC(=O)*; hArg = N=C(N)NCCCC[C@H](N)C(=O)O; Cha = N[C@@H](CC1CCCCC1)C(=O)O; NMeL = CN[C@@H](CC(C)C)C(=O)O; AC4Abu″ = not defined here; code O = not defined here; Nle = CCCC[C@H](N)C(=O)O; Orn = NCCC[C@H](N)C(=O)O; AEEA = NCCOCCOCC(=O)O; βAla = NCCC(=O)O
T1: human APJ receptor (human, UniProt P35414 1-380)
T1 sequence (looked up): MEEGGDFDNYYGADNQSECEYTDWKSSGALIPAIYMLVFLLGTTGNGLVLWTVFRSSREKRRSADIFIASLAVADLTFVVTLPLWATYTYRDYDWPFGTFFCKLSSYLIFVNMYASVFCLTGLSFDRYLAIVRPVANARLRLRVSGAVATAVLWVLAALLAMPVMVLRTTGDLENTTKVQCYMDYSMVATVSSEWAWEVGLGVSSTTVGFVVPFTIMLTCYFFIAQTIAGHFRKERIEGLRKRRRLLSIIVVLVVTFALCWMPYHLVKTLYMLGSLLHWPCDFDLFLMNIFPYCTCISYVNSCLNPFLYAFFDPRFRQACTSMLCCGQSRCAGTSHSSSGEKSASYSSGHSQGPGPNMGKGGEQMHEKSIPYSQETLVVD

T2: rat APJ receptor (rat, UniProt Q9JHG3 1-377)
T2 sequence (looked up): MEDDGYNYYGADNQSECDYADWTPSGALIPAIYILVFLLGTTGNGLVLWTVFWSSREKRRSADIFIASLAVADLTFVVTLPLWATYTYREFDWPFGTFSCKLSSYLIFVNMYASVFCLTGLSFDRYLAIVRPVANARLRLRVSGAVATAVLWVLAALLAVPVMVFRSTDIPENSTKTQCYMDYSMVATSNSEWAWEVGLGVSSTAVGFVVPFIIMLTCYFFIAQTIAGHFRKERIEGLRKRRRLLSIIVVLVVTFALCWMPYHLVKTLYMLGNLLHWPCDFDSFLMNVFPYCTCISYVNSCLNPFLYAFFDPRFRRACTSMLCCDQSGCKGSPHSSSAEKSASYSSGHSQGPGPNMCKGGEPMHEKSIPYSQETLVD


Experiments:
[1] = molecular target: T1, human APJ receptor; assay: cell-based or functional assay
[2] = molecular target: T2, rat APJ receptor; assay: cell-based or functional assay

| EC50 Human APJ Receptor [1] [µM] | EC50 Rat APJ Receptor [2] [µM] | Binder |
| --- | --- | --- |
| 0.00746 |  | [code O]F[hArg][hArg]Q[hArg]P[hArg][Cha]SHKG[Oic][βAla]P[Phe(4-Cl)] (reading uncertain; also: printed as OF[hArg][hArg]Q[hArg]P[hArg][Cha]SHKG[Oic][bAla]P[4-Cl-F]) [apelin polypeptide SEQ ID NO: 708] |
| 0.0342 | 0.0522 | {20K‑mPEGReg-Propanoyl(3-triazol-4-yl)}-[hArg][dR]Q[hArg]P[dR][NMeL]SHKG[Oic][Phe(4-I)]P[dBip]-OH (also: 20 kDa PEG conjugate) [apelin polypeptide SEQ ID NO: 103] |
|  | 0.0303 | Tridecanoyl-[AC4Abu″][AEEA][AEEA][hArg]Q[dR]P[NMeR][Cha]SHKG[Oic][Nle][d1Nal]-OH (reading uncertain) [apelin polypeptide SEQ ID NO: 165] |
|  | 0.0138 | Tridecanoyl-[AC4Abu″][AEEA][AEEA][hArg]Q[dR]P[NMeR][Cha]SHKG[Oic][Nle]P[dPhe(4-Cl)]-OH (reading uncertain) [apelin polypeptide SEQ ID NO: 230] |
|  | 0.000915 | Ac-[hArg][hArg]Q[hArg]P[NMeR][Cha]SHKG[Oic][Nle]P[Phe(4-Cl)]-OH (SMILES CCCC[C@H](NC(=O)[C@@H]1C[C@@H]2CCCC[C@@H]2N1C(=O)CNC(=O)[C@H](CCCCN)NC(=O)[C@H](Cc1c[nH]cn1)NC(=O)[C@H](CO)NC(=O)[C@H](CC1CCCCC1)NC(=O)[C@H](CCCNC(=N)N)N(C)C(=O)[C@@H]1CCCN1C(=O)[C@H](CCCCNC(=N)N)NC(=O)[C@H](CCC(N)=O)NC(=O)[C@H](CCCCNC(=N)N)NC(=O)[C@H](CCCCNC(=N)N)NC(C)=O)C(=O)N1CCC[C@H]1C(=O)N[C@@H](Cc1ccc(Cl)cc1)C(=O)O) [apelin polypeptide SEQ ID NO: 56] |
| 0.00322 | 0.0473 | Ac-[Atz](20K‑mPEG)LRP[hArg][Cha]SHKG[Oic][Nle]P[Phe(4-Cl)]-OH [apelin polypeptide SEQ ID NO: 106] |
|  | 0.000188 | [code O][BhPhe][hArg][hArg]Q[hArg]P[hArg][Cha]SHKG[Oic][Nle]P[Phe(4-Cl)] (reading uncertain; also: printed as O[BhPhe][hArg][hArg]Q[hArg]P[hArg][Cha]SHKG[Oic][Nle]P[4-Cl-F]) [apelin polypeptide SEQ ID NO: 686] |
| 0.000187 | 0.000285 | Ac-[Atz](20K‑mPEG)KFRRQRP[hArg][Cha]SHKG[Oic][Nle]P[Phe(4-Cl)]-OH [apelin polypeptide SEQ ID NO: 105] |
| 0.0105 | 0.01 | Ac-[Pra′](20K‑mPEGReg)[Orn]F[hArg][hArg]QRP[hArg][NMeL]SHKG[Oic][Phe(4-I)]P[dBip]-OH [apelin polypeptide SEQ ID NO: 107] |
| 0.0189 | 0.045 | {20K‑mPEGReg-Propanoyl(3-triazol-4-yl)}-[hArg]RQ[hArg]PR[NMeL]SHKG[Oic][Phe(4-I)]P[dBip]-OH (also: 20 kDa PEG conjugate) [apelin polypeptide SEQ ID NO: 104] |
